Test results: US20130316951A1

Target: platelet glycoprotein (GP) IIb/IIIa on platelets of mouse platelet rich plasma (mouse) (UniProt Q9QUM0)
Assay: cell-based or functional assay

Sequence of platelet glycoprotein (GP) IIb/IIIa on platelets of mouse platelet rich plasma (mouse) (Q9QUM0 32-1033, chain 1 of 2): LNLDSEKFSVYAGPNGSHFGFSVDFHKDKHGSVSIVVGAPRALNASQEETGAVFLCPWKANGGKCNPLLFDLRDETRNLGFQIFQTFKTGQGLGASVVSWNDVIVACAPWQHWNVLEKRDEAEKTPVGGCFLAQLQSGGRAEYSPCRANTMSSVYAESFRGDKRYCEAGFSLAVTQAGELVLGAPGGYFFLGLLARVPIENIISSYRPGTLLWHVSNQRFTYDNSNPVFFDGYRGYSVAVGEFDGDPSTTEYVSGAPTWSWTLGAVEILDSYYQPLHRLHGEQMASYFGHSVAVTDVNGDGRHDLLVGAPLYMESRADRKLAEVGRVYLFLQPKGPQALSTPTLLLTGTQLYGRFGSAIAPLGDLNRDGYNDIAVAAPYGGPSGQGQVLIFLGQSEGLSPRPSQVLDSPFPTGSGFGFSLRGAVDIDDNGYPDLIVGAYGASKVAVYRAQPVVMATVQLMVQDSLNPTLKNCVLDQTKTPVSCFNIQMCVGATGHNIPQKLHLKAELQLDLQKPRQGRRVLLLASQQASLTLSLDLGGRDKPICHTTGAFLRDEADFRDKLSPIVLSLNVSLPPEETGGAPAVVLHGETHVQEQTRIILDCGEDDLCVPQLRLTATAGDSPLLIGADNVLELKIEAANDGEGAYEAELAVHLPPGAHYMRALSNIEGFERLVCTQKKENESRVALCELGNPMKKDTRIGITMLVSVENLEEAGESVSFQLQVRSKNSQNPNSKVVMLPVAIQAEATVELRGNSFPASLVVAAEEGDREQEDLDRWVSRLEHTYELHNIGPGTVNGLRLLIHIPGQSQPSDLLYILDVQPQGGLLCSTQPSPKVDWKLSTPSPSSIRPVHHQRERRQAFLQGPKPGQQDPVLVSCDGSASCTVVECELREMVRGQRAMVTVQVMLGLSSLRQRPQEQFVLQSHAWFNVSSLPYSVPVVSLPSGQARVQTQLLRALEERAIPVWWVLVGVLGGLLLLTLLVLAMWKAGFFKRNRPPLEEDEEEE
Sequence of platelet glycoprotein (GP) IIb/IIIa on platelets of mouse platelet rich plasma (mouse) (O54890 26-787, chain 2 of 2, further chain): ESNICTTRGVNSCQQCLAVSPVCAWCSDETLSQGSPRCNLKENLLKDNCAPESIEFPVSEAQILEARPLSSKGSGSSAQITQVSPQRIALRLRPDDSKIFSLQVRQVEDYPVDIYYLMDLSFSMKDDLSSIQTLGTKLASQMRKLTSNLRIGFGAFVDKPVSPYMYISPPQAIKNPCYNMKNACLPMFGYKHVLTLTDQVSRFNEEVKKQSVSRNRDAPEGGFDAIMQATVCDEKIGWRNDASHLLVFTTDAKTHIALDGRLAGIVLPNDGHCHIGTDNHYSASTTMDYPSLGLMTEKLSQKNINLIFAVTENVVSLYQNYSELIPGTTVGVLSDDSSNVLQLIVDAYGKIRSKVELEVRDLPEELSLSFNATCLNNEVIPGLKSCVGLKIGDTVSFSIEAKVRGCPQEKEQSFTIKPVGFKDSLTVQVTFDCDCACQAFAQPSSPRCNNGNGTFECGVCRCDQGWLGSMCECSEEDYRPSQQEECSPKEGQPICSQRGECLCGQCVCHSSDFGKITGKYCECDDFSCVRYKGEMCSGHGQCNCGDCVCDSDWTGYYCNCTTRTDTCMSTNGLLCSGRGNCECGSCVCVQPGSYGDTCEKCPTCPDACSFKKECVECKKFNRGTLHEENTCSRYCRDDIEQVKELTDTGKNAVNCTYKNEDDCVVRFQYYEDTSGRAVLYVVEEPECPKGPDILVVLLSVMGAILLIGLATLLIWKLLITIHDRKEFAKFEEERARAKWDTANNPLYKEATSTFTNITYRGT

“recombinant saxatilin (from UniProt Q9DGH6 1-73) (ligand)” was tested, and the IC50 of inhibition of ADP-induced platelet aggregation, mouse PRP, aggregometer was 176 nM and the treatment concentration giving a similar level of platelet aggregation inhibition was 0.7 µM.
